Values quoted from earlier work, collected in publication PMC7696831.

Biological target: SARS-CoV spike protein (Severe acute respiratory syndrome coronavirus) (UniProt P59594)

angiotensin-converting enzyme 2, sequence (Q9BYF1 18-708): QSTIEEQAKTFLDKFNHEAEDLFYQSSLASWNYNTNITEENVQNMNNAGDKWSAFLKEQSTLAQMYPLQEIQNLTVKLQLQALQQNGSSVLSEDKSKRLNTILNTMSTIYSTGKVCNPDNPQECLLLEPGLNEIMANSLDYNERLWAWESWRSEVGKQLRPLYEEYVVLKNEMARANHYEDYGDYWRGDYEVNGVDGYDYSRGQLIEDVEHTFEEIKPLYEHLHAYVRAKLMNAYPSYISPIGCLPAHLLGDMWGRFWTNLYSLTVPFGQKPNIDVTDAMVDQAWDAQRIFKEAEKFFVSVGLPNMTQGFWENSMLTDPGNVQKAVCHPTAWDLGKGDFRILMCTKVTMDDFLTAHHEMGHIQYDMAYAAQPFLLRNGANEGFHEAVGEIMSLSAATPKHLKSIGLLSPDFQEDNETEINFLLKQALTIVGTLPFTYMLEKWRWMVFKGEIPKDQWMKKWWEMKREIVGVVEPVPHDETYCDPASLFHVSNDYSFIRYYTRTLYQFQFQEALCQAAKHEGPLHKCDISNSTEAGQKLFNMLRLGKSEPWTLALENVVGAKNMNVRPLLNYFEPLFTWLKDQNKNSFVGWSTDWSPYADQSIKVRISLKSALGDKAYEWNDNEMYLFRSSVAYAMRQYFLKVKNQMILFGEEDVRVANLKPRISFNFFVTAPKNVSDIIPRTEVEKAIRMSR

Substance: angiotensin-converting enzyme 2 (from UniProt Q9BYF1)
- Kd: 326 nM
